Experiments:
gB-Ecto.H516P.L531E.DS = target: T1, gB-Ecto.H516P.L531E.DS (Human alphaherpesvirus 1, strain KOS, H516P | L531E | A240C | E607C); assay: SPR; conditions: both partners purified
T1 construct: also called gB-Ecto.H516P.L531E.A240C+E607C (DS); gB-Ecto.516P.531E.DS; not shown: 8xHis-Tag, C-terminal, kept

gB-Ecto.H516P.L531E = target: T2, gB-Ecto.H516P.L531E (Human alphaherpesvirus 1, strain KOS, H516P | L531E); assay: SPR; conditions: both partners purified
T2 construct: also called gB-Ecto.516P.531E; prefusion gB; not shown: 8xHis-Tag, C-terminal, kept

[1] = target: T3, HSV-1 gB on infectious HSV-1 virions (Human alphaherpesvirus 1 (HSV-1), …, UniProt P06437); assay: ELISA; virion-binding ELISA: plates coated with purified authentic live HSV-1 at 50,000 infectious particles per well; monoclonal antibodies in fivefold dilutions from 20 µg/ml; conditions: one partner purified
T3 construct: also called authentic live virus; source: HSV-1 MacIntrye (VR-539; ATCC) propagated in Vero cells, virions purified by ultracentrifugation with a 25% sucrose cushion

cryo-EM structure = target: the molecule itself; assay: cryo-EM structure

B1: WS.HSV-1.24 Fab (Fab, V domains shown)
VH: QVQLKESGPGLVAPSQSLSITCTVSGFSLTTYGVTWVRQPPGKGLEWLGVIWGDGSTNYHSDLISRLSITKDNSKSQVFLKLSSLQADDTATYYCVSYYGYFDHWGQGTTLTVSS
VL: DIQMTQSPSSLSASLGERVSLTCRASQDIGSSLNWLQQKPDGTIKRLIYATSSLDSGVPKRFSGSRSGSDYSLTISSLESEDFVDYYCLQYASSPPTFGGGTKLEIK
notes: also called WS.HSV-24; source: IgG expressed in Expi293F and purified; reduced and alkylated, digested with immobilized papain; Fab purified (protein G negative selection, Superdex 75 gel filtration)
Kd (gB-Ecto.H516P.L531E.DS): 1.86 nM
Kd (gB-Ecto.H516P.L531E): 3.2 nM

B2: WS.HSV-1.24 IgG (antibody, V domains shown)
VH: B1 VH
VL: B1 VL
notes: also called WS.HSV-24; source: Expi293F, purified (variable genes cloned into pVRC8400 with species-specific constant regions)
binding result [1]: binds

B3: gB-Ecto.H516P.L531E (HSV-1 glycoprotein B ectodomain stabilized in the prefusion conformation) (domain or fragment)
chain: not shown
modifications: N-linked glycans (densities seen at 141, 398, 430 and 674)
notes: also called H516P + L531E ectodomain; prefusion gB
stoichiometry N (cryo-EM structure): 3
